In EP0730609B1:

Target: recombinant human IL4 (E. coli, non-glycosylated) (human) (UniProt P05112)
Test: cell-based or functional assay

recombinant human IL4 (E. coli, non-glycosylated) (human), sequence (P05112 25-153 limits assumed): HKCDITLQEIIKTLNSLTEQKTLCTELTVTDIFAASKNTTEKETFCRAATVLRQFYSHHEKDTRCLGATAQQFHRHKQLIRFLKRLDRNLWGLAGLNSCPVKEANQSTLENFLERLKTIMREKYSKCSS

B cell (inhibition of IL4-stimulated B lymphocyte proliferation), IC50: 0.079 nM
IgE synthesis (inhibition of IL4-driven IgE secretion), IC50: 0.406 nM
T cell (inhibition of IL4-stimulated T lymphocyte proliferation), IC50: 0.04 nM
B1: humanized 3B9 (IgG4) (antibody, from another filing, V domains shown)
VH: QVTLRESGPALVKPTQTLTLTCTFSGFSLSTSGMGVSWIRQPPGKGLEWLAHIYWDDDKRYNPSLKSRLTISKDTSRNQVVLTMTNMDPVDTATYYCARRETVFYWYFDVWGRGTPVTVSS
VL: IVMTQSPDSLAVSLGERATINCKASQSVDYDGDSYMNWYQQKPGQPPKLLIYAASNLESGVPDRFSGSGSGTDFTLTISSLQAEDVAVYYCQQSNEDPPRFGGGTKVEIKR
